Test results from patent US8597922B2, “Methods and compositions for producing olefins” (LS9, Inc., priority 2007, dated 2013).
Where a chain is given by its changes, count along the chain named. Names may count otherwise. Where two headings read alike, the source gives them in different places.

What was measured:
[1] = In vitro α-olefin synthesis by purified His-tagged protein with hydrogen peroxide; format: biochemical; conditions: 200 μL purified protein, 200 μM hydrogen peroxide, 200 μM potassium hexadecanoate, room temperature overnight
Experimental: E. coli C41 DE3 (ΔfadE) cells were transformed with pET15b-orfKRH21570 using routine transformation techniques. Protein expression was carried out by first inoculating 5 mL of LB broth supplemented with 100 mg/L carbenicillin with a colony of the E. coli strain which was followed by shaking the cells overnight at 37° C. to produce a starter culture. This starter culture was used to inoculate 0.5 L of LB media supplemented with 100 mg/L of carbenicillin. The culture was shaken at 37° C. until an OD600 value of 0.6 was reached, after which it was induced with 1 mM IPTG and 0.5 mM delta-aminolaevulinic acid. The culture was then shaken at 25° C. for approximately 18 h. The protein was purified as described in Example 12.
To assay the activity of ORF_KRH21570, 200 μL of purified protein was incubated with 200 μM of hydrogen peroxide and 200 μM of potassium hexadecanoate. As a negative control, the same reaction was conducted, but without the addition of either purified protein (100 mM sodium phosphate pH 7.2 was used in its place) or free fatty acid. The reactions were performed in duplicates and incubated at room temperature overnight. […] Trimethylanilinium hydroxide was added to the ethyl acetate layer at a 1:1 ratio and the extracts analyzed by GC/MS using the MAR_splitless_short method. […]

E. coli C41 ΔfadE = format: cell-based
Experimental: Genomic DNA encoding C. efficiens YS-134 (DSMZ44549) orfCE2459 (SEQ ID NO:6) was cloned into the NcoI and EcoRI sites of vector OP-80 (pCL1920 derivative) under the control of the Ptrc promoter. The resulting construct was then transformed into E. coli C41 ΔfadE.
The cells were grown at 37° C. in M9 minimal media supplemented with 20 μg/mL uracil, 1% glucose (w/v), and 100 μg/mL spectinomycin. When the culture reached an OD600 of 0.8 to 1.0, it was induced with 1 mM IPTG supplemented with 0.5 mM delta-aminolaevulinic acid (heme biosynthesis precursor), and 0.05% stearic acid (as a substrate for orfCE2459). The temperature was shifted to 25° C. and cells were allowed to grow for an additional 18-20 h Cells from 1 mL of culture were resuspended with 100 μL of methanol, sonicated for 30 min, and extracted with 300 μL of ethyl acetate. After vortexing for 15 min, 300 μL of water was added, and the mixture was vortexed for another 15 min before centrifugation at 15,000 rpm for 10 min. The solvent layer was analyzed by GC-MS.
Genomic DNA encoding Kokuria rhizophila DC2201 orfKRH21570 (SEQ ID NO:8), which was codon optimized (SEQ ID NO:9) for expression in E. coli, was cloned into the NdeI and XhoI sites of vector OP-183 (pACYC177 derivative) under the control of the Ptrc promoter. The resulting construct was then transformed into E. coli C41 ΔfadE. The cells were grown, extracted, and analyzed as in described in Example 7.
The genomic DNA encoding Bacillus subtilis fatty acid hydroxylase, Cyp152A1 (SEQ ID NO:13) or P450Bsβ, was cloned into the NdeI and XhoI sites of vector OP-183 (pACYC177 derivative) under the control of the Ptrc promoter. The construct was used as a template to introduce a mutation at position 85 changing the Glu to His using the following primer: GTTAATGCGATTCAcGGAATGGATGGC. The resulting constructs were then transformed into E. coli C41 (ΔfadE). The cells were grown at 37° C. in M9 minimal media supplemented with 20 μg/mL uracil, 1% glucose (w/v), and 100 μg/mL carbenicillin. When the culture reached OD600 of 0.8-1.0, it was induced with 1 mM IPTG; supplemented with 0.5 mM delta-aminolaevulinic acid (heme biosynthesis precursor) and 0.05% stearic acid (as a substrate for Bsb). The temperature was shifted down to 25° C. and cells were allowed to grow for an additional 18-20 h. Cells from 1 mL of culture was resuspended with 100 μL of methanol, sonicated for 30 min, and extracted with 300 μL of ethyl acetate. After vortexing the extract for 15 min, 300 μL of water was added, vortexed for another 15 minutes before centrifugation at 15,000 rpm for 10 minutes. The solvent layer was analyzed by GC-MS.

[2] = Specific activity of α-olefin and α/β-hydroxy fatty acid formation by purified enzymes; format: biochemical; conditions: for specific activity for 1-pentadecene formation: 500 μM H2O2, 200 μM potassium hexadecanoate, pH 7.2, room temperature, comparison between enzymes
Experimental: The specific activity of α-olefin formation as well as α-(2) and β-(3)hydroxy fatty acid formation were determined for ORF880, CYP152A1, and CYP152A1 Q85H (see Examples 12 and 16). An E. coli BL21 strain (DE3) (Invitrogen) was transformed with either pET15b-orf 880, pET15b-cyp152A1, and pET15b-cyp152A1 Q85H using routine chemical transformation techniques. Protein expression was carried out by first inoculating a colony of the E. coli strain in 5 mL of LB media supplemented with 100 mg/L of carbenicillin and shaken overnight at 37° C. to produce a starter culture. This starter culture was used to inoculate 0.5 L of LB media supplemented with 100 mg/L of carbenicillin. The culture was shaken at 37° C. until an OD600 value of 0.6 was reached. The culture was placed on ice for 10 min before IPTG was added to a final concentration of 250 μM. The culture was shaken at 25° C. for approximately 18 h, and then centrifuged at 3,700 rpm for 20 min at 4° C. The pellet was then resuspended in 10 mL of buffer containing 100 mM sodium phosphate buffer at pH 7.2 supplemented with Bacterial ProteaseArrest (GBiosciences). The cells were then sonicated at 12 W on ice for 9 sec with 1.5 sec of sonication followed by 1.5 sec of rest. This procedure was repeated 5 times with one min intervals between each sonication cycle. The cell free extract was centrifuged at 10,000 rpm for 30 min at 4° C. 5 mL of Ni-NTA (Qiagen) was added to the supernatant, and the mixture was gently stirred at 4° C. The slurry was passed over a column removing the resin from the lysate. The resin was then washed with 30 mL of buffer containing 100 mM sodium phosphate buffer at pH 7.2 plus 30 mM imidazole. Finally, the protein was eluted with 15 mL of 100 mM sodium phosphate buffer at pH 7.2 plus 250 mM imidazole. The protein solution was dialyzed with 200 volumes of 100 mM sodium phosphate buffer at pH 7.2 with 20% glycerol. Protein concentration was determined using the Bradford assay (Biorad). 578 μg/mL of ORF880, 865 μg/mL of CYP152A1, and 653 μg/mL of CYP152A1 Q85H protein was obtained.
To determine the specific activity with potassium hexadecanoate, the following reactions were set-up where each time point consisted of 500 μL. Each reaction contained of 500 μM H2O2, 200 μM of potassium hexadecanoate, 100 mM sodium phosphate buffer at pH 7.2, and protein at the following concentrations: ORF880-0.23 or 0.46 μM; CYP152A1-8.65, 17.3, or 34.6 μM; CYP152A1 Q85H-6.53, 13.06, or 26.12 μM. The reactions were carried out at room temperature and time points were taken at 0, 1, 3, 5, 7, 10, 14, and 20 minutes. Reactions were quenched with 50 μL of 12 M HCl and then extracted with 200 μL of ethyl acetate. 50 μL of this extract was then reacted with 50 μL N,O-Bis(trimethylsilyl)trifluoroacetamide with trimethyl-chlorosilane (Aldrich). Samples were analyzed using GC/MS using the following parameters: run time: 20 min; column: HP-5-MS Part No. 190915-433E (length of 30 meters; I.D.: 0.25 mm narrowbore; film: 0.25 μM); inject: 1 μL Agilent 6850 inlet; inlet: 300° C. splitless; carrier gas: helium; flow: 1.3 mL/min; oven temp: 100° C. hold 5 min, 320° C. at 20° C./min, 320° C. hold 5 min; det: Agilent 5975B VL MSD; det. temp: 300° C.; scan: 50-500 M/Z. Calibration curves were generated using 1-pentadecene, α(2)-hydroxyhexadecanoic acid, and β(3)-hydroxyhexadecanoic acid dissolved in ethyl acetate and derivatized as described herein.
Based upon this analysis, product formation was determined to be linear within the first three minutes. The specific activities for each enzyme concentration in the linear range were averaged for a given reaction (e.g., decarboxylation, α-hydroxylation, or β-hydroxylation). FIG. 21 summarizes the results. The specific activity for 1-pentadecene formation was similar for ORF880 and CYP152A1. Mutating the glutamine 85 residue to a histidine increased the specific activity of 1-pentadecene formation (i.e., increased fatty acid decarboxylase activity). […]

[3] = with 0.05% stearic acid feeding
[4] = compared with the wild-type version of CYP152A1

B1: orf_KRH21570: ORF880 homolog P450 enzyme from Kokuria rhizophila DC2201, YP_001856010 (protein, listed as Kokuria rhizophila)
chain: MTSPFGQTRSEQGPSLLRSGYLFASRARRRAGLSSDSGCPVRMPLLGKQTVLVRGEEGVKLFYDTSRVRRDGAMPGVVQGPLFGAGAVHGLDGEAHRVRKNQLADMAYEDERVAAYKPFVAEELENLVARWKDGDNVYDSTAIAFGRASFRWAGLQWGVPEMDRWARRMSRLLDTFGRPATHLVSRLDRIALDRRFAALIKDVRAGKVNAPEDSVLAHMAALVDEHGELVDAKTAGIELQNLTRPNVAVARFAAFAATALVEHPEWVERIRAASEQRGGTLLDVPEAVAFAQEVRRVYPFVPMLPAEVTQDTEIQGCPVHKGERVVLDILGTNTDPTSWDRAATFDPERFLGVEDAEAITTFIPQGGAEVRTGHRCPGEKIAVTSLSAAVVALCRPEVQLPGDQDDLTFSWTHMLTRPVTGVRVRTTR
Question: With B1 as the molecule, how does the “α-olefin formed from hexadecanoic acid” value [1] read?
Answer: 1-pentadecene

Question: What about the α-olefin produced (E. coli C41 ΔfadE; [3]) of the same molecule?
Answer: 1-heptadecene

Question: What about the α-olefin produced (E. coli C41 ΔfadE; without stearic acid feeding, grown on glucose) of the same molecule?
Answer: 1-heptadecadiene

B2: orf_Mpop1292: ORF880 homolog P450 enzyme from Methylobacterium populi, ZP_02200540 (protein, listed as Methylobacterium populi)
chain: MPAAIATHRFRKARTLPREPAPDSTLALLREGYGFIRNRCRRHDSDLFAARLLLSPVICMSGAEAARHFYDGHRFTRRHALPPTSFALIQDHGSVMVLDGAAHLARKAMFLSLVGEEALQRLAGLAERHWREAVSGWARKDTVVLLDEAHRVLTAAVCEWVGLPLGPTEVDARAREFAAMIDGTGAVGPRNWRGHLYRARTERWVRKVIDEIRSGRRDVPPGAARTIAEHQDADGQRLDRTVAGVELINVLRPTVANARYIVFAAMALHDHPHQRAALADGGEAAERFTDEVRRFYPFIPFIGGRVRAPFHFGGHDFREGEWVLMDLYGTNRDPRLWHEPERFDPDRFARETIDPFNMVSHGAGSARDGHRCPGEGITRILLRTLSRQLAATRYTVPPQDLTLDLAHVPARPRSGFVMRAVHAP
Question: With B2 as the molecule, how does the “α-olefin formed from hexadecanoic acid” value [1] read?
Answer: 1-pentadecene

B3: CYP152A1: Bacillus subtilis fatty acid hydroxylase, NP_388092 (protein, listed as Bacillus subtilis)
chain: MNEQIPHDKSLDNSLTLLKEGYLFIKNRTERYNSDLFQARLLGKNFICMTGAEAAKVFYDTDRFQRQNALPKRVQKSLFGVNAIQGMDGSAHIHRKMLFLSLMTPPHQKRLAELMTEEWKAAVTRWEKADEVVLFEEAKEILCRVACYWAGVPLKETEVKERADDFIDMVDAFGAVGPRHWKGRRARPRAEEWIEVMIEDARAGLLKTTSGTALHEMAFHTQEDGSQLDSRMAAIELINVLRPIVAISYFLVFSALALHEHPKYKEWLRSGNSREREMFVQEVRRYYPFGPFLGALVKKDFVWNNCEFKKGTSVLLDLYGTNHDPRLWDHPDEFRPERFAEREENLFDMIPQGGGHAEKGHRCPGEGITIEVMKASLDFLVHQIEYDVPEQSLHYSLARMPSLPESGFVMSGIRRKS
Question: Which α-olefin produced (E. coli C41 ΔfadE; [3]) does the source give for B3 here?
Answer: 1-heptadecene

Question: What about the “specific activity for 1-pentadecene formation” value [2] of the same molecule?
Answer: similar

B4: CYP152A1 Q85H (protein, UniProt O31440 1-417, looked up, variant Q85H)
Fatty-acid peroxygenase: B3 chain with Q85H
Question: Which α-olefin produced (E. coli C41 ΔfadE; [3]) does the source give for B4 here?
Answer: capable of carrying out this reaction

Question: What about the “specific activity for 1-pentadecene formation” value [2] of the same molecule?
Answer: increased

Question: And the “rate of α-hydroxyhexadecanoic acid formation” value [2, 4]?
Answer: lowered

Question: What about the “rate of β-hydroxyhexadecanoic acid formation” value [2, 4] of the same molecule?
Answer: increased
